Laboratory results as given in the supplement of paper PMC12764529.
± gives the half width of the 95% confidence interval.

Assays:
[1] = folding stability dG unfold from chymotrypsin proteolysis; higher = more stable
Procedure, shortened: (§1)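 How resistant each design was to proteolysis was captured as K50, inferred by Bayesian fitting of sequencing counts. Unfolding free energy was then derived relative to a sequence-predicted unfolded-state K50 and a shared folded-state K50, per protease or combined. Digestion used trypsin and chymotrypsin at 11 threefold-diluted concentrations plus a no-protease condition, on mini-proteins under 80 residues without cysteine in a PA-tagged cDNA display construct. Designs were kept only when AlphaFold2 dimer inter-PAE was above 15.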

[2] = folding stability dG unfold (combined trypsin and chymotrypsin); higher = more stable
Procedure, shortened: as §1

[3] = folding stability dG unfold from trypsin proteolysis; higher = more stable
Procedure, shortened: as §1

| Sequence | folding stability dG unfold [1] [kcal/mol] | folding stability dG unfold [2] [kcal/mol] | folding stability dG unfold [3] [kcal/mol] |
| --- | --- | --- | --- |
| SAGGSAGGSAGAAVSPEELKEKAKKEGYDGEVVVTRLPDGTLRVTVKDKGKKSEITVPLESAGGSAGGSAGG [r11_410_JUSTAS] | 0.942 ± 0.041 | 0.672 ± 0.11 | 0.263 ± 0.064 |
| SAGGSAGGSAGGNGKKEITIFIKVPPGMPPNEIKDELKDLGLTNIEIERHNNWVMITFRSAGGSAGGSAGGS [r10_868_TrROS] | 1.84 ± 0.099 | 1.58 ± 0.12 | 1.15 ± 0.06 |
| SAGDKGRYHFPFTVTMPPGKPPSQIEDALGKYGWDDVDINREPPPNGETKYTINVHMPKEDLPKLLEAFSAG [r5_376_TrROS] | 0.933 ± 0.26 | 0.963 ± 0.12 | 0.895 ± 0.039 |
| SAGGSAGGSAGGSPSETLEVTLADGTRLTVTRNADGSLTVTVEPAPPPPVVVFKSPEELSAGGSAGGSAGGS [r4_120_TrROS_Hall] | 0.623 ± 0.14 | 1.14 ± 0.096 | 1.44 ± 0.025 |
| SAGMTITVESLEDALALAEELAEKYPGLKVTVEVRLSPDGKTVEVRVTIEPAPPVKVVDPETGEEVEEESAG [r5_870_TrROS_Hall] | 2.3 ± 0.12 | 3.43 ± 0.3 | 3.72 ± 0.36 |
| SAGGSAGGSAGPVKTVEVEIPGMSEEELLALLPPGVKRVEIEREEVEPGRVRLRIKVYEESAGGSAGGSAGG [r11_1002_TrROS_Hall] | 1.3 ± 0.051 | 0.977 ± 0.059 | 0.307 ± 0.062 |
| SAGGGALVLPDPDVPDDLPLVVVDPENGTVTLLHFDRETGRVRARVVRLGDGVPEEEEAVFPVAPDALSAGG [r13_851_TrMRF] | -0.261 ± 0.18 | 0.078 ± 0.11 | 0.242 ± 0.11 |
| SAGGSAGGSKPEYVLRVKIYNEETGELVEEIEITVKSKEEALKALKKLLPKDNVKIEVEILPPSAGGSAGGS [r12_578_TrROS_Hall] | 3.09 ± 0.25 | 3.2 ± 0.17 | 3.34 ± 0.11 |
| SAGGSAGGMVYKIRDKETGKVYEVTIDEETNEITVYDVKTGKPVKTVNMTIEELKEAGYEVEPVSAGGSAGG [r6_831_TrROS_Hall] | 3.27 ± 0.034 | 3.4 ± 0.2 | 3.61 ± 0.16 |
| SAGGSAPPPGSTQVIVVEKRDAPPEEAAQEIADEIKEKYPNTSVEVQEEEVPPGEPVVRVTVYIPPSAGGSA [r15_916_JUSTAS] | 0.945 ± 0.15 | 0.559 ± 0.48 | 0.845 ± 0.14 |
| SAGGSAGGSEPVVIKVTVTNENGEKRTITLPEIEVEPGETIEEIAAALAAEPGVKEVKVEVVPSAGGSAGGS [r12_199_TrROS_Hall] | 0.444 ± 0.039 | 0.605 ± 0.069 | 0.702 ± 0.022 |
| SAGGGMKISTVETKPESDGSIVITIKVYDANGNEIKTYTIPLKGLSNVTITIPVANNPIEVSIPATLSSAGG [r13_427_JUSTAS] | 2.05 ± 0.078 | 1.84 ± 0.13 | 1.48 ± 0.037 |
| SAGGSAGGSAGGGSMTLELPLPEWSEEEIEALAEELKKKGLKVKEIERDPESDVVRITVESAGGSAGGSAGG [r7_906_JUSTAS] | 2.28 ± 0.078 | 2.15 ± 0.11 | 1.79 ± 0.1 |
| SAGGSAGGSAGGMEVKTVEDPKGLTVEVSPPVGTATTVYGDETVTHTLSPSATVALEPASAGGSAGGSAGGS [r10_637_JUSTAS] | 0.435 ± 0.033 | 0.31 ± 0.1 | -0.0233 ± 0.042 |
| SAKKKITVKIKIEYDKETGTLKVEVEITYPDGKKVKVEAEIDLKTGKITIKVYDKNGKLIAEIEIELPPSAG [r14_524_TrROS_Hall] | 2.35 ± 0.092 | 2.61 ± 0.36 | 2.68 ± 0.25 |
| SAGGGLPASDPDVTATTETFTVTYTEATPEGNPVTTTTTTTVTTYTAPDGAVTTTTTTTSTTVTPASTSAGG [r13_51_JUSTAS] | 1.77 ± 0.023 | 1.76 ± 0.038 | 1.7 ± 0.062 |
| SAGGSASDVVPIDKKITITLPGGEKYEVTEMTVLPDGTVKMKIIKKSPNGNPTEEEITLSPEELVDLSAGGS [r16_498_JUSTAS] | 2.594 ± 0.021 | 2.47 ± 0.058 | 2.26 ± 0.083 |
| SAGGKKKKKVKIKIEIAIVIPEEDLSEEERKKLAEELAERLKRELAEKLGLSEDEIEEIEVTVYRLPPSAGG [r13_5_TrROS_Hall] | 2.33 ± 0.067 | 2.04 ± 0.21 | 1.67 ± 0.092 |
| SMEEAIEEAIKKNEEAIAAGGGPVKVELEVPGYRIDLTFSPNGLKITNIEEKNSPDGIPSVKSTSDVPPPSA [r9_308_JUSTAS] | -0.503 ± 0.11 | 0.284 ± 0.14 | 0.845 ± 0.085 |
| SAGGSAGGKPVTVEVDIVVKPGDTIEFPPGAKVEIVEKKEVEVNGKKYQVFKIKVTLPPGEEALSAGGSAGG [r6_454_TrROS_Hall] | 2.854 ± 0.026 | 2.72 ± 0.23 | 2.31 ± 0.12 |
| SAGGSAGGMTVPITLPLDEYSPEEVEAKIKAIREEIEKKNPDKKISINVTLVPQPPEPTPENLRSAGGSAGG [r6_729_JUSTAS] | 0.517 ± 0.023 | 0.299 ± 0.07 | -0.745 ± 0.14 |

| Sequence | folding stability dG unfold [1] [kcal/mol] | folding stability dG unfold [2] [kcal/mol] | folding stability dG unfold [3] [kcal/mol] |
| --- | --- | --- | --- |
| SAGGSKIIITYDKEKNVITIKVEKNGKLLEITIEVKSKEDLEEALKKAEELAKELEKKGYKVEIIPSAGGSA [r2_118_TrROS_Hall] | 2.31 ± 0.07 | 2.15 ± 0.2 | 1.95 ± 0.12 |
| SAGGSAGGEDRLLLRVEVIVGGVPFEPVLEVDHPELRELLEEGRVLVVELPGGAVGRLYAEPLASAGGSAGG [r6_478_TrMRF] | 0.704 ± 0.11 | 0.811 ± 0.1 | 0.7 ± 0.049 |
| SAGGPGWVTVEFWIPIEPDPNQTRDDVKEKAEEIVHEMAEYHPQFGITNVKVDVDPEEGWVKVSIVWPSAGG [r13_1011_TrROS] | 1.58 ± 0.15 | 1.49 ± 0.24 | 1.47 ± 0.16 |
| GLVDEDGKEVFPEVPLVIELDVPENLPDGKKLSPEEVEKLVKGLAEKLKKEYNVKKVEAERKGNKVLILVGS [r1_369_TrMRF] | 0.519 ± 0.15 | 0.706 ± 0.1 | 0.688 ± 0.058 |
| SAGGSAGGSAGAPPEGAKPVEEETVPIEIQMRNDDDGKPIMPIKFEVRVYKFPDGIFISISAGGSAGGSAGG [r11_415_TrROS] | 2.91 ± 0.042 | 2.45 ± 0.21 | 1.34 ± 0.13 |
| SAGGSAGGSAGGMYVAVVTRPDGSRLVVETEPGEEIELFTEDGRPLGITAVAPVDEEAFSAGGSAGGSAGGS [r10_422_TrMRF] | -0.334 ± 0.18 | 0.227 ± 0.09 | 0.444 ± 0.036 |
| SAGGSAMEIEVEKNEDGTVTIRFRDKETGEEIEIEIEVEPGMTEEEVREKAEELAEELKKKGIEIESAGGSA [r15_1022_TrROS_Hall] | 2.73 ± 0.19 | 2.89 ± 0.23 | 2.82 ± 0.19 |
| SGKVKVKVEIPIPFRPPDGKWMMMNIWVEAEVPVTPEDLNNGKPRIRPEALDEAKDKVREWMRDIFGEPISA [r9_629_TrROS] | 1.74 ± 0.11 | 1.45 ± 0.13 | 1.03 ± 0.052 |
| SAGGSAGGSAQPIPIKIRIRMRDDGKPQTFTFEVPVKPGATESTILDKIMKKFPGFRHIEIESAGGSAGGSA [r18_195_TrROS] | 0.961 ± 0.066 | 1.06 ± 0.085 | 1.06 ± 0.035 |
| SAGGSAMMLAKVKIELPNGEIVEIPIEFESLEELEEKIKEKARELFPDIPIEDIKILDIELYSLEESAGGSA [r15_220_TrMRF] | 5.32 ± 0.13 | 5.31 ± 0.34 | 4.06 ± 0.27 |
| SAGGSAGGSAGPTVASVEVLEYDPETGYLTVRIYIPDNGEWVDVKAPVGTAEEIVKAAEKSAGGSAGGSAGG [r17_111_TrMRF] | 1.49 ± 0.048 | 1.16 ± 0.14 | 0.463 ± 0.077 |
| MEIIKKLKIPDYEIVSVKTKKIGNKVIVVVVLKKEKEYYVIVAEINPETKEIKIISIKKLKENETLEDFISS [r1_383_TrMRF] | 3.95 ± 0.11 | 3.76 ± 0.32 | 3.2 ± 0.26 |
| SMVELKITVKTPEELKKLEEAFKELGVEEVTIERKEDGTVTITVTFKESEEELEERVREALEELGFEVEPSA [r9_1003_TrROS_Hall] | 2.82 ± 0.23 | 3.18 ± 0.22 | 3.33 ± 0.18 |
| SKIKKIKRVEIFKKKEKGYVVKITVEIDGKEYEFTVPAGMSLEEALKELLKNKDVKIKSVEIKPVSKEELSA [r9_607_TrROS_Hall] | 0.734 ± 0.18 | 0.595 ± 0.29 | 0.0722 ± 0.22 |
| SMKIKSIKIEPIRIGDEEYFLIPIEVDGEEIPPEEVKRLVEELFEKLGLPLDPVLLEDPESDIVLVLARGSA [r9_717_TrMRF] | 1.34 ± 0.11 | 1.48 ± 0.16 | 1.82 ± 0.053 |
| SAGGSAGGSAGGMLSGQVIEVTIPPERRLVRVEKLPSGDYLITIYRPDEPKPLETLRIRASAGGSAGGSAGG [r7_620_JUSTAS] | 1.92 ± 0.071 | 1.78 ± 0.11 | 1.49 ± 0.034 |
| SAGGKKPKIEVKIEFDEETGKLRIEIRTEDGKLIAEKEIEIDGVLFKVKVIVKDGKLVIEIEAFPKKSAGGS [r16_631_TrROS_Hall] | 3.99 ± 0.12 | 3.65 ± 0.25 | 2.79 ± 0.15 |
| SAGGSAGGSMTIVDPETGETLEIIEVKKNEDGKESFIFRISSPKPRYFIIDKDGNIRVIEKKDSAGGSAGGS [r12_205_TrROS_Hall] | 1.23 ± 0.2 | 1.34 ± 0.074 | 1.36 ± 0.022 |
| SAGGSAGGSAGPTLTLELLFRNEDGSLYAVRVRYDLDTDKVEIEVRRLPPAEPVTVTVEDSAGGSAGGSAGG [r11_657_TrROS_Hall] | 4.26 ± 0.052 | 3.7 ± 0.17 | 2.8 ± 0.12 |
| SKKPKIKIEIEIVEITEVKYDKKTNKITVKVKVKIKIEVEVNGKKKKIEIEIPKNMTLEEILKKLKELLKSA [r9_656_TrROS_Hall] | 1.99 ± 0.12 | 2.28 ± 0.58 | 2.15 ± 0.44 |
